The test system of this series is ATP. Description: switch fluorescence ratio, 500 uM ATP over buffer (Cy3 cluster intensity, sum of 5 cycles each) (fold (ratio)); higher = stronger signal-on switching upon ATP binding; sequences stand for … in TCGTCGGCAGCGTCAGATGTGTATAAGAGACAGTTTTTTTTTTTTTTTTTTTTTTTTT…TC. Conditions: aptamer strand: ATP DNA aptamer (quencher-CACCTGGGGGAGTATTGCGGAGGAAGG + anchor), 100 nM annealed; ATP concentration: 500 uM. The gist of the method:
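Between each of five buffer/ATP cycles, the flow-cell was stripped with NaOH and re-annealed. Each cycle imaged Cy3-labelled switching-strand clusters, annealed to 100 nM quencher-labelled ATP aptamer on a modified Illumina MiSeq flow-cell, first in selection buffer and then after 15 min with 500 uM ATP at 22 °C. The fluorescence ratio is summed target-cycle over summed buffer-cycle Cy3 intensity per cluster, averaged per switch-domain sequence, with clusters outside 100-1000 RFU excluded.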

Experimental findings from the supplement of paper PMC10126150 are described below.

± gives the standard deviation of the averaged measurements.
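Note: ATP exposure 15 min at 22 °C before imaging.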

For the sequence TTTTTGATCG, the switch fluorescence ratio was determined as 0.997 ± 0.039.

Take TTTTTGATCT: the switch fluorescence ratio is 0.998 ± 0.016.

TTTTTGCACC: the switch fluorescence ratio worked out at 1.04 ± 0.037.

Consider TTTTTGCATA, for which the switch fluorescence ratio was 1.25 ± 0.26.

For TTTTTGCTCG, the switch fluorescence ratio came out at 1 ± 0.03.

Turning to TTTTTGGAGT, the switch fluorescence ratio was 1.05 ± 0.07.

Turning to TTTTTGGCAC, the switch fluorescence ratio amounted to 0.982 ± 0.029.

As for TTTTTGGCTC, the switch fluorescence ratio was 1.01 ± 0.019.

Turning to TTTTTGGGAC, the switch fluorescence ratio stood at 1.03 ± 0.045.

For TTTTTGGGCA, the switch fluorescence ratio came to 0.99 ± 0.013.

As for TTTTTGGGCG, the switch fluorescence ratio was found to be 1.01 ± 0.022.

On to TTTTTGGGTC, for which the switch fluorescence ratio was 1.03 ± 0.12.

For the sequence TTTTTGGTAA, the switch fluorescence ratio is 1.01 ± 0.021.

Regarding TTTTTGGTAC, the switch fluorescence ratio was 1.05 ± 0.076.

With TTTTTGTAAC, the switch fluorescence ratio was 1.01 ± 0.022.

Turning to TTTTTGTAGT, the switch fluorescence ratio came out at 1.01 ± 0.032.

For the sequence TTTTTGTCCC, the switch fluorescence ratio is 1.04 ± 0.054.

With TTTTTGTCCG, the switch fluorescence ratio came to 1.02 ± 0.042.

With TTTTTGTCTG, the switch fluorescence ratio is 0.9814 ± 0.0091.

Turning to TTTTTGTGCA, the switch fluorescence ratio worked out at 1.01 ± 0.011.

Consider TTTTTGTTCG, for which the switch fluorescence ratio worked out at 0.998 ± 0.015.

In the case of TTTTTTAATA, the switch fluorescence ratio came out at 1 ± 0.036.

As for TTTTTTACAG, the switch fluorescence ratio was found to be 1.02 ± 0.011.

Turning to TTTTTTACCA, the switch fluorescence ratio stood at 1.01 ± 0.036.

Turning to TTTTTTACCG, the switch fluorescence ratio came out at 1.02 ± 0.04.

Turning to TTTTTTACGT, the switch fluorescence ratio was determined as 1.043 ± 0.0092.

For TTTTTTACTT, the switch fluorescence ratio is 1.03 ± 0.054.

For TTTTTTAGAG, the switch fluorescence ratio was 1.004 ± 0.0068.

Take TTTTTTAGTG: the switch fluorescence ratio was 0.981 ± 0.026.

For TTTTTTATGG, the switch fluorescence ratio is 1.01 ± 0.031.

TTTTTTCCAC: the switch fluorescence ratio was found to be 1.01 ± 0.028.

In the case of TTTTTTCTCT, the switch fluorescence ratio stood at 0.994 ± 0.02.

Turning to TTTTTTGCTT, the switch fluorescence ratio came out at 0.989 ± 0.038.

On to TTTTTTGT, for which the switch fluorescence ratio came out at 0.982 ± 0.021.

With TTTTTTGTCC, the switch fluorescence ratio worked out at 1.01 ± 0.018.

On to TTTTTTTAGT, for which the switch fluorescence ratio was determined as 0.996 ± 0.022.

TTTTTTTATC: the switch fluorescence ratio stood at 1.01 ± 0.027.

Turning to TTTTTTTCAC, the switch fluorescence ratio was determined as 0.953 ± 0.058.

For the sequence TTTTTTTCCC, the switch fluorescence ratio worked out at 1.01 ± 0.018.

Regarding TTTTTTTCGC, the switch fluorescence ratio is 1.01 ± 0.032.

Turning to TTTTTTTCTA, the switch fluorescence ratio came to 0.99 ± 0.014.

Regarding TTTTTTTG, the switch fluorescence ratio came out at 0.997 ± 0.026.

Take TTTTTTTGCC: the switch fluorescence ratio was 1 ± 0.058.

Turning to TTTTTTTTAG, the switch fluorescence ratio was found to be 1.07 ± 0.27.

TTTTTTTTGG: the switch fluorescence ratio is 0.998 ± 0.032.

For TTTTTTTTTG, the switch fluorescence ratio is 0.987 ± 0.025.
